Target: recombinant Fc-tagged extracellular domain of LILRB3 (LILRB3-ECD) (human, UniProt O75022 24-443, glycosylated (production from mammalian NS0 cells))
Assay: BLI

Chain of recombinant Fc-tagged extracellular domain of LILRB3 (LILRB3-ECD) (O75022 24-443): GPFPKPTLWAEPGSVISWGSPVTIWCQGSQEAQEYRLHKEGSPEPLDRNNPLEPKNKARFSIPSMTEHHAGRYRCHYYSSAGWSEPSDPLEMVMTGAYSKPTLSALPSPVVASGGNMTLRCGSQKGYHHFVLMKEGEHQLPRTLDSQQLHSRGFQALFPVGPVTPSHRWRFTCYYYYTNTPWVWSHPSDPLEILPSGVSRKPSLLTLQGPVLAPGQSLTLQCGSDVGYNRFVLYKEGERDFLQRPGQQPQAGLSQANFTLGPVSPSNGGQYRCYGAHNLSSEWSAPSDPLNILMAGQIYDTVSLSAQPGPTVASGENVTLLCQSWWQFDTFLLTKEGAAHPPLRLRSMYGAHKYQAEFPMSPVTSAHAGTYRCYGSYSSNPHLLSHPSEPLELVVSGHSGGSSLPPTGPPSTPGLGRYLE

- Kd: 44 nM
B1: recombinant human galectin-4 (Galectin-4-His) (natural protein, UniProt P56470 1-323, looked up)
chain: MAYVPAPGYQPTYNPTLPYYQPIPGGLNVGMSVYIQGVASEHMKRFFVNFVVGQDPGSDVAFHFNPRFDGWDKVVFNTLQGGKWGSEERKRSMPFKKGAAFELVFIVLAEHYKVVVNGNPFYEYGHRLPLQMVTHLQVDGDLQLQSINFIGGQPLRPQGPPMMPPYPGPGHCHQQLNSLPTMEGPPTFNPPVPYFGRLQGGLTARRTIIIKGYVPPTGKSFAINFKVGSSGDIALHINPRMGNGTVVRNSLLNGSWGSEEKKITHNPFGPGQFFDLSIRCGLDRFKVYANGQHLFDFAHRLSAFQRVDTLEIQGDVTLSYVQI

— PMC10932818 (Cancer immunology research, 2024)
